Experimental data reported in patent publication EP4796128A1, “ANTI-C-MET ANTIBODY-DRUG CONJUGATE COMPRISING CAMPTOTHECIN DERIVATIVE” (Celltrion, Inc., priority 2023, dated 2025).
Values joined by “and” are separate entries in the source; they are usually repeats but may differ in a detail not shown here. Equal entries are not always repeated.

Tests used:
Assay type in all cases: in vivo, BALB/c nude mice
[1] = system: Hs746T human gastric cancer xenograft; experiment: Hs746T human gastric cancer xenograft model; conditions: for TGI: Day 13; for T/C: Day 13, tumor volume vs P23 isotype mAb group
Protocol: Hs746T tumor cells (ATCC, Catalog No. HTB-135) were cultured as a monolayer in DMEM medium supplemented with 10% FBS and 1% antibiotic-antimycotic at 37°C in an atmosphere of 5% CO2 in air. Tumor cells (Hs746T) were routinely passaged three times a week by treating with trypsin-EDTA. The cells with exponential growth were harvested and counted for tumor inoculation.
Mice were randomly assigned to groups of six each, and tumor cells were inoculated into the mice according to the experimental conditions shown in Table 9 below. Specifically, Hs746T tumor cells (2 × 10^6 cells/mouse) were subcutaneously inoculated into the right flank of each mouse together with 0.1 mL of PBS containing Matrigel. The teatment was started on day 15 after inoculation, when the average tumor volume reached 197 mm^3, and the date when the treatment started was set as Day 0. This experiment was performed for 27 days.
The experimental endpoints were set when tumor growth stopped or the mice were cured. The size and volume of the tumor were measured twice a week in two and three dimensions using calipers, and these were used to calculate the T/C (tumor volume over control volume) and TGI (tumor growth inhibition) values.
In the T/C values (%) above, T and C represent the average volume of the experimental group and the control group on a specific day, respectively, and the T/C value is an index for the antitumor effect.
The TGI values were calculated using the following equation, where Ti is a mean tumor volume of the treatment group on a specific date, T0 is a mean tumor volume of the treatment group on the first day of treatment, Vi is a mean tumor volume of the vehicle control group on the same day as Ti, and V0 is a mean tumor volume of the vehicle group on the first day of treatment. TGI (%) = [1−(Ti−T0)/(Vi−V0)] × 100 [formula]
All data were analyzed using SPSS 29.0. p < 0.05 was considered statistically significant.

[2] = system: NCI-H441 human lung cancer xenograft; experiment: NCI-H441 human lung cancer xenograft model; conditions: 3 mg/kg i.v. QW × 2 weeks
Protocol: NCI-H441 tumor cells (ATCC, Catalog No. HTB-174) were maintained in vitro in RPMI 1640 medium supplemented with 10% FBS and 1% antibiotic-antimycotic at 37°C and 5% CO2 in air. Tumor cells NCI-H441 were routinely passaged twice a week by treatment with trypsin-EDTA. The cells with exponential growth were harvested and counted for tumor inoculation.
Mice were randomly assigned to groups of 10 each, and tumor cells were inoculated into the mice according to the experimental conditions shown in Table 19 below. Specifically, NCI-H441 tumor cells (5 × 10^6 cells/mouse) were subcutaneously inoculated into the right flank of each mouse together with 0.2 mL of PBS containing Matrigel (1:1). Treatment was started on day 14 after inoculation, when the mean tumor volume reached 180 mm^3, and the treatment start date was set as day 0. This experiment was performed for 35 days.
(§1) Statistical analysis was performed on the data obtained 35 days after the start of the experiment to determine differences in tumor volume and tumor weight between groups. […] All data were analyzed using SPSS 29.0. p < 0.05 was considered statistically significant.

[3] = system: LU-01-0439 human lung cancer xenograft; experiment: LU-01-0439 human lung cancer xenograft (PDX) model; conditions: 10 mg/kg i.v. QW × 2 weeks
Text: It was aimed to confirm the anticancer effect of the ADC of the present invention from the LU-01-0439 human lung cancer xenograft model of BALB/c nude mice (Zhejiang Vital River Laboratory Animal Technology Co., LTD.).
The lung cancer PDX model of LU-01-0439 was generated by transplanting surgically resected clinical samples into immunodeficient mice and was established as passage 0 (P0). Then, the cells were subcultured through serial transplantation, and the passage after P0 was defined as passage 1 (P1). The tumor recovered from the frozen P2 tumor tissue was designated as FP3, and finally, FP4 tumor tissue was prepared for the experiment.
Mice were randomly assigned to groups of eight each, and tumors were implanted into the mice according to the experimental conditions shown in Table 14 below. Specifically, LU-01-0439 FP4 tumor fragments (20-30 mm^3) were subcutaneously implanted into the right flank of each mouse. Treatment was started on day 24 after tumor transplantation, when the mean tumor volume reached 175 mm^3, and the treatment start date was set as Day 0. This experiment was performed for 35 days.
The tumor size was measured using the same method as in Experimental Example 3-1 above.
as §1

[4] = Day 35, tumor volume vs P23 isotype mAb group
[5] = Day 35, tumor weight vs P23 isotype mAb group

B1: P23-PBX-7016: isotype ADC: anti-influenza A antibody (Navivumab, P23) conjugated with mc-GGFG-PBX-7016; DAR 8 (conjugate, chains of the INN, looked up)
VH: QVQLVQSGAEVKKPGASVKVSCKTSGYSFSTYGVSWVRQAPGQGPEWVGWISAYTGITDYAQKFQGRVTLTTDATTATAFLDLRSLRPDDTATYFCARDKVQGRVEVGSGGRHDYWGQGTLVIVSS
VL: EVVLTQSPGTLALPPGERATLSCRASHRVGSTYIAWYQQKSGQAPRRLIYGASNRATDIPDRFSGSGSGTDFTLTIRRLEPEDSAVYYCQQFSVSPWTFGQGTRVEIK
modifications: mc-GGFG-PBX-7016 payload, DAR 8
Tumor Volume ([1]; 0.3 mg/kg i.v. single dose, Day 0, mean ± SEM): 197 ± 24 mm^3
Tumor Volume ([1]; 0.3 mg/kg i.v. single dose, Day 3, mean ± SEM): 309 ± 37 mm^3
Tumor Volume ([1]; 0.3 mg/kg i.v. single dose, Day 6, mean ± SEM): 512 ± 87 mm^3
Tumor Volume ([1]; 0.3 mg/kg i.v. single dose, Day 10, mean ± SEM): 873 ± 170 mm^3
TGI ([1]; 0.3 mg/kg i.v. single dose): 26.87%
T/C ([1]; 0.3 mg/kg i.v. single dose): 76.49%
Tumor Volume ([1]; 0.3 mg/kg i.v. single dose, Day 20, mean ± SEM): 2149 ± 475 mm^3
Tumor Volume ([1]; 0.3 mg/kg i.v. single dose, Day 27, mean ± SEM): 2,175 ± 874 (n = 3) mm^3
Tumor Volume ([1]; 1 mg/kg i.v. single dose, Day 0, mean ± SEM): 197 ± 24 mm^3
Tumor Volume ([1]; 1 mg/kg i.v. single dose, Day 3, mean ± SEM): 298 ± 36 mm^3
Tumor Volume ([1]; 1 mg/kg i.v. single dose, Day 6, mean ± SEM): 476 ± 80 mm^3
Tumor Volume ([1]; 1 mg/kg i.v. single dose, Day 10, mean ± SEM): 807 ± 171 mm^3
TGI ([1]; 1 mg/kg i.v. single dose): 27.98%
T/C ([1]; 1 mg/kg i.v. single dose): 75.52%
Tumor Volume ([1]; 1 mg/kg i.v. single dose, Day 20, mean ± SEM): 2,089 ± 416 mm^3
Tumor Volume ([1]; 3 mg/kg i.v. single dose, Day 0, mean ± SEM): 197 ± 23 mm^3
Tumor Volume ([1]; 3 mg/kg i.v. single dose, Day 3, mean ± SEM): 281 ± 55 mm^3
Tumor Volume ([1]; 3 mg/kg i.v. single dose, Day 6, mean ± SEM): 318 ± 72 mm^3
Tumor Volume ([1]; 3 mg/kg i.v. single dose, Day 10, mean ± SEM): 308 ± 80 mm^3
TGI ([1]; 3 mg/kg i.v. single dose): 84.88%
Tumor Volume ([1]; 3 mg/kg i.v. single dose, Day 13, mean ± SEM): 405 mm^3 and 405 ± 125 mm^3
T/C ([1]; 3 mg/kg i.v. single dose): 25.71%
Tumor Volume ([1]; 3 mg/kg i.v. single dose, Day 17, mean ± SEM): 669 ± 192 mm^3
Tumor Volume ([1]; 3 mg/kg i.v. single dose, Day 20, mean ± SEM): 826 ± 223 mm^3
Tumor Volume ([2]; Day 0, mean ± SEM): 180 ± 13 mm^3
Tumor Volume ([2]; Day 4, mean ± SEM): 198 ± 16 mm^3
Tumor Volume ([2]; Day 7, mean ± SEM): 171 ± 14 mm^3
Tumor Volume ([2]; Day 11, mean ± SEM): 140 ± 14 mm^3
Tumor Volume ([2]; Day 14, mean ± SEM): 131 ± 14 mm^3
Tumor Volume ([2]; Day 18, mean ± SEM): 134 ± 15 mm^3
Tumor Volume ([2]; Day 21, mean ± SEM): 138 ± 17 mm^3
Tumor Volume ([2]; Day 25, mean ± SEM): 155 ± 20 mm^3
Tumor Volume ([2]; Day 28, mean ± SEM): 190 ± 33 mm^3
Tumor Volume ([2]; Day 32, mean ± SEM): 235 ± 42 mm^3
TGI ([2]; Day 35): 91.34%
Tumor Weight on Day 35 ([2]; Day 35): 0.318 ± 0.059 g
Tumor Volume ([2]; Day 35, mean ± SEM): 303 ± 54 mm^3
T/C [2, 4]: 19.00%
T/Cweight [2, 5]: 19.05%
Tumor Volume ([3]; Day 0, mean ± SEM): 175 ± 15 mm^3
Tumor Volume ([3]; Day 3, mean ± SEM): 209 ± 22 mm^3
Tumor Volume ([3]; Day 7, mean ± SEM): 238 ± 22 mm^3
Tumor Volume ([3]; Day 10, mean ± SEM): 247 ± 19 mm^3
Tumor Volume ([3]; Day 14, mean ± SEM): 217 ± 18 mm^3
Tumor Volume ([3]; Day 17, mean ± SEM): 217 ± 28 mm^3
Tumor Volume ([3]; Day 21, mean ± SEM): 205 ± 42 mm^3
Tumor Volume ([3]; Day 24, mean ± SEM): 263 ± 61 mm^3
Tumor Volume ([3]; Day 28, mean ± SEM): 393 ± 90 mm^3
Tumor Volume ([3]; Day 31, mean ± SEM): 536 ± 117 mm^3
TGI ([3]; Day 35): 64.62%
Tumor Weight on Day 35 ([3]; Day 35): 0.561 ± 0.117 g
Tumor Volume ([3]; Day 35, mean ± SEM): 630 ± 137 mm^3
T/C [3, 4]: 43.11%
T/C [3, 5]: 42.93%
